Here are results for one molecule from patent publication US20200239570A1 (CRESCENDO BIOLOGICS, published 2020).

The target of assay [1] is T1, human PD-1 expressed on cells (CHO human PD-1 cells) (human, UniProt Q15116 21-288).
T1 construct: CHO cells in the FMAT assays; Jurkat reporter cells in the reporter assay; primary CD4+ T cells in the mixed lymphocyte reaction; also called CHO TREX human PD1 cell line; CHO PD-1
Put plainly: 2.1 epitope competition assay (FMAT, CHO human PD-1 cells; competitor 2.1-Strep); VH pre-incubated in human serum at 37 C, Day 7. Here is the method: (§1) Serum stability of VH was assessed by measurement of its activity following incubation for 0, 1, 4 or 7 days in both human and mouse serum (Sigma M5905). The pre-incubated samples were serially diluted and tested in the 2.1 epitope competition assay.
(§2) For the epitope competition assay reagents were prepared in FMAT assay buffer. […] Plates were incubated for a minimum of 1.5 hours at room temperature then fluorescence measured in the FL2 (502 nm-537 nm) and FL5 (677-800 nm) channels on the Mirrorball plate reader (TTP) following excitation at 488 nm and 640 nm. Data was expressed as a % of the total binding control (i.e. % control) after subtraction of the background signal determined from the non-specific binding control wells.

In assay [2] the target is T1, human PD-1 expressed on cells (CHO …). Put plainly: 2.1 epitope competition assay (FMAT, CHO human PD-1 cells; competitor 2.1-Strep); VH pre-incubated in mouse serum, Day 0. On the procedure:
as §1, §2

Assay [3] has as its target T2, cynomolgus PD-1 (Acro Biosystems cat no. PD1-C5254) (cynomolgus, UniProt B0LAJ3 25-170).
T2 construct: bought recombinant protein; also called cyno PD-1; cynomolgus PD-1 recombinant protein; not shown: Human Fc tag of the vendor's construct, and any linker to it; The Fc is implied by detection with anti human-Fc cryptate
Put plainly: HTRF binding assay, His-tagged VH on 2 nM recombinant PD-1. On the procedure: (§3) Purified VH were tested for their ability to bind to human PD-1 (R&D Systems cat no. 1086-PD), cynomolgus PD-1 (Acro Biosystems cat no. PD1-C5254) and mouse PD1 (R&D Systems cat no. 1021-PD) in an HTRF Binding assay format. All reagents and serially diluted VH were prepared in assay buffer containing PBS, 0.1% BSA and 0.4M Potassium Fluoride. Samples or assay buffer (non-specific binding) were incubated with 2 nM human/cynomolgus or mouse PD-1, 1 nM Anti human-Fc Cryptate PAb (Cisbio cat. no. 61HFCKLB) and 30 nM anti His-D2 (CisBio cat no 61HISDLA) in black 384-shallow well assay plates for a minimum of 3 hours at room temperature. Time-resolved fluorescent emission at 620 nm and 665 nm was measured following excitation at 337 nm on the BMG PHERAstar plate reader. The HTRF ratio were calculated ((665 nm emission/620 nm emission)*10000) and the data corrected for (non-specific binding) to give the specific binding signal.
(In general: TR-FRET usually uses a lanthanide donor and a delayed reading to cut background.)

The target of assay [4] is T3, recombinant human PD-1 Fc chimera (human, UniProt Q15116 25-167).
T3 construct: Bought (R&D 1086-PD); Labelled with europium cryptate in the PD-L2 HTRF assay; also called human PD-1 (R&D Systems cat no. 1086-PD); human PD-1-huFc; not shown: human Fc of the bought chimera
The description is as above. On the procedure: as §3

The target in assay [5] is T1, human PD-1 expressed on cells (CHO …). Put plainly: 2.1 epitope competition assay (FMAT, CHO human PD-1 cells; competitor 2.1-Strep); VH pre-incubated in human serum at 37 C, Day 4. Here is the method: as §1, §2
Assay [6] shares this target. Put plainly: 2.1 epitope competition assay (FMAT, CHO human PD-1 cells; competitor 2.1-Strep); VH pre-incubated in mouse serum at 37 C, Day 7. On the procedure: as §1, §2
The target is the same in assay [7]. As to the kind of experiment: 2.1 epitope competition assay (FMAT, CHO human PD-1 cells; competitor 2.1-Strep); VH pre-incubated in human serum at 37 C, Day 1. Here is the method: as §1, §2
Assay [8] concerns the target T4, mouse PD1 (R&D Systems cat no. 1021-PD) (mouse, UniProt Q02242 25-167).
T4 construct: bought recombinant protein; also called mouse PD-1 protein
T4 sequence (looked up): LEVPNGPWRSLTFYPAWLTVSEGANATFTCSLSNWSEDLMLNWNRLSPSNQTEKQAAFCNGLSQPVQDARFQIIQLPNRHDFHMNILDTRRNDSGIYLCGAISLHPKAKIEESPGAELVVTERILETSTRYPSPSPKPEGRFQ
Put plainly: HTRF binding assay, 2 nM mouse PD-1.

Assay [9] has as its target T1, human PD-1 expressed on cells (CHO …). As to the kind of experiment: FMAT, His-tagged VH on CHO human PD-1 cells.
Assay [10] shares this target. Put plainly: 2.1 epitope competition assay (FMAT, CHO human PD-1 cells; competitor 2.1-Strep); VH pre-incubated in mouse serum at 37 C, Day 4. On the procedure:
as §1, §2

Assay [11] has the same target. Put plainly: FMAT epitope competition on CHO human PD-1 cells; competitor 2 nM 1.1-Strep tagged protein. On the procedure: as §2
The target is the same in assay [12]. As to the kind of experiment: 2.1 epitope competition assay (FMAT, CHO human PD-1 cells; competitor 2.1-Strep); VH pre-incubated in human serum, Day 0; Day 0, human serum. On the procedure:
as §1, §2

The target is the same in assay [13]. As to the kind of experiment: FMAT epitope competition on CHO human PD-1 cells; competitor 2 nM 2.1-Strep tagged protein. On the procedure: as §2
Assay [14] has as its target T3, recombinant human PD-1 Fc chimera. Put plainly: SPR (Biacore T200), PD-1-huFc amine-coupled to CM5, single cycle kinetics, 1:1 fit. Here is the method: Binding kinetics of certain VH single domain antibodies binding to human PD-1-huFc were measured by surface plasmon resonance (SPR) technology using Biacore T200 instrument (GE Healthcare). Recombinant human PD-1-huFc was immobilized by standard amine coupling to CM5 sensorschip (GE Healthcare) using 0.01 mg/ml solution of antigen in 10 mM sodium acetate at pH 5.5. For the reference flow cell, a blank immobilisation was carried out. Single cycle kinetics assays were used to study the interaction, a five point, three-fold dilution series of each Humabody® was made with a top concentration of 30 nM. The binding kinetics were followed by flowing the Humabody® over the chip surface in HBS EP+ buffer at a flow rate of 30 μl/min. The contact time for each of the association steps was 180 seconds and the dissociation step was varied between 1200-3600 seconds. The data was fitted to a 1:1 binding model after double reference subtraction using the Biacore T200 Evaluation software.
In general terms: SPR reads the build-up and loss of mass on a sensor chip optically.

The target in assay [15] is T1, human PD-1 expressed on cells (CHO …). Put plainly: 2.1 epitope competition assay (FMAT, CHO human PD-1 cells; competitor 2.1-Strep); VH pre-incubated in mouse serum at 37 C, Day 1. Here is the method:
as §1, §2

T1 sequence (Q15116 21-288): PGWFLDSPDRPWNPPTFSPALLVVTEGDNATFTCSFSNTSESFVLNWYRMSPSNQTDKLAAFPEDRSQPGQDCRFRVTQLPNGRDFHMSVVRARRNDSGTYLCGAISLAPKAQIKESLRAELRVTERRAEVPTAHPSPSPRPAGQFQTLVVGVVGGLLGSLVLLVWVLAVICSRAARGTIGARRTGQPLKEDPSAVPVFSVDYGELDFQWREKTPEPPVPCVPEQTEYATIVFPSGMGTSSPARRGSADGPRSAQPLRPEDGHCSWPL
T3 sequence (Q15116 25-167, change not shown): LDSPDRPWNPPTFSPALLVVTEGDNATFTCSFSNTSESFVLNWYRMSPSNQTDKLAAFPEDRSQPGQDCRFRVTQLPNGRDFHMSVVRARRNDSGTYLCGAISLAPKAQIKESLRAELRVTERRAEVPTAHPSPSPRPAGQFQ
T2 sequence (B0LAJ3 entry or part of it limits assumed): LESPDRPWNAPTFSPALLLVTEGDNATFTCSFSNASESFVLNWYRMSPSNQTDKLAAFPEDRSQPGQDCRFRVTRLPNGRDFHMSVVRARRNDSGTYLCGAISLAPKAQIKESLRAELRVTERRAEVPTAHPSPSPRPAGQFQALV

B1: Humabody VH 1.39 (VHH)
VHH: EVQLVESGGGLVQPGRSLRLSCAASGFTFDDYALHWVRQAPGKDLEWVSGISWNGGSYGYADSVKGRFTISRDNAKNSLYLQMNSLRAEDTALYYCVREKGPGLTGSTADYYGLDAWGQGTMVTVSS
notes: human VH single domain antibody
Usually IC50 stands for the concentration that inhibits the measured activity by half. The low end stands for greater potency, the high end for weaker potency. By EC50 is commonly meant the concentration at which the effect is half-maximal. One may read the Kd as the constant that tells how readily two partners part at equilibrium. For orientation: koff means a measure of how fast the partners let go of each other. As a reminder, the kon is a measure of how fast the partners come together. For B1, the half-maximal inhibitory concentration (IC50) in [1] was found to be 9.3 nM; in [2] it was 8.7 nM; in [5] it was 10.2 nM; in assay [6], 11.6 nM; in assay [7] it was 10.1 nM; in [10] it was 11.1 nM. In addition, the IC50 was 8.9 nM in assay [11], 12.9 nM in [12], 9.7 nM in [13] and 9.3 nM in [15]. In addition, the EC50 in [3] is 6 nM; in [4], 2.6 nM; in assay [9] it was 0.6 nM. Further, the binding result in assay [8] is reported as “no binding”. Further, the Kd in assay [14] was determined as 4.24 nM. Also, the koff in [14] was found to be 0.00134 s⁻¹. Moreover, the kon in assay [14] amounted to 316000 M⁻¹ s⁻¹.
